Data: patent US20230203482A1, “Methods of Rescuing Stop Codons via Genetic Reassignment with ACE-tRNA” (THE WISTAR INSTITUTE OF ANATOMY AND BIOLOGY, priority 2017, published 2023)
“Also recorded” adds a separate entry of the source.

B1: Glychr19.trna2: top performing glycine ACE-tRNA UGA suppressor, SEQ ID NO: 53 (nucleic acid)
chain: GCGTTGGTGGTATAGTGGTTAGCATAGCTGCCTTCAAAGCAGTTGACCCGGGTTCGATTCCCGGCCAACGCA
modifications: chemistry not fully specified

Experiments:
CFTR W1282X = experiment: Two-electrode voltage clamp of CFTR W1282X in Xenopus laevis oocytes; assay type: cell-based, human
Description: (§1) In vitro cRNA transcription. G542XUGA, W1282XUGA, and WT CFTR pGEMHE (Mense et al., 2006; PMID:1703051) plasmids were linearized by 10× excess of NheI-HF restriction enzyme (site positioned 3′ of coding region)(New England BioLabs, USA) for 3 hours at 37° C. and purified using standard cDNA precipition methods. All cRNAs were transcribed using the mMessage mMachine T7 Kit (ThermoFisher Scientific; USA). Purification of the cRNA from the transcription reaction was conducted on columns from the RNeasy Mini Kit (Qiagen, Germany). Concentration was determined by absorbance measurements at 260 nm and quality was confirmed on a 1% agarose gel (RNase-free). All cRNA was queued to […] before use and all results were generated from ≥2 cRNA preparations.
(§2) In vitro tRNA transcription. […] Equimolar concentration of T7 oligo (5)-taatacgactcactata-3′) was annealed to ACE-tRNA PAGE-purified Ultramers (20 ug; Integrated DNA Technologies, Coralville, Iowa) coding for the ACE-tRNA and preceded by a T7 promoter (italics). Importantly, the three terminal nucleotides containing CCA were included (bold).
The total reaction volume was adjusted to 100 μl and the kit reagents were added in the following amounts: 10 μl of 10X T7-Scribe transcription buffer, 7.5 μl of each nucleotide (100 mM stocks), 10 μl of 100 mM Dithiothreitol, 2.5 μl ScriptGuard RNase Inhibitor, 10 μl T7-Scribe enzyme solution. After the reaction was incubated for 4-5 hours at 37° C., the DNA template was digested with 5 μl DNase (1 U/μl) provided with the kit for 30-60 min. The ACE-tRNA was extracted from the reaction with acidic phenol chloroform (5:1, pH 4.5) and precipitated with ethanol. […]
(§3) Two-electrode voltage clamp (TEVC) recordings. CFTR Cl^− currents were recorded in ND96 bath solution that contained (in mM): 96 NaCl, 2 KCl, 1 MgCl2, and 5 HEPES (pH 7.5) in the presence of a maximal CFTR activation cocktail, forskolin ([…]; adenylate cyclase activator) and 3-isobutyl-1-methylxanthine (1 mM; phosphodiesterase inhibitor). […]

CFTR G542X = experiment: Two-electrode voltage clamp of CFTR G542X in Xenopus laevis oocytes; assay type: cell-based, human; settings: for rescued CFTR current relative to WT CFTR: compared to WT CFTR cRNA 25 ng
Description: as §1, §2
The total reaction volume was adjusted to 100 μl and the kit reagents were added in the following amounts: 10 μl of 10X T7-Scribe transcription buffer, 7.5 μl of each nucleotide (100 mM stocks), 10 μl of 100 mM Dithiothreitol, 2.5 μl ScriptGuard RNase Inhibitor, 10 μl T7-Scribe enzyme solution. After the reaction was incubated for 4-5 hours at 37° C., the DNA template was digested with 5 μl DNase (1 U/μl) provided with the kit for 30-60 min. The ACE-tRNA was extracted from the reaction with acidic phenol chloroform (5:1, pH 4.5) and precipitated with ethanol. The precipitates ACE-tRNA was pelleted, washed, dried and resuspended in 100 μl DEPC-treated water and further purified with Chrorna Spin-30 columns (Clontech, USA). The procedure yielded roughly 100 μl of ˜5 μg/μl ACE-tRNA. ACE-tRNAs were re-pelleted in 20 ug aliquots, washed, lyophilized and stored at −80° C. until use. All results were generated from ≥2 ACE-tRNA preparations.
Expression in Xenopus laevis oocytes. Xenopus laevis oocytes (stage V and VI) were purchased from Ecocyte (Austin, Tex.). Prior to injection, each ACE-tRNA pellet was resuspended in 2 μl of ddH2O and debris was pelleted at 21,000×g, 4° C. for 25 min. […]
as §3

Molecule | Hill coefficient (CFTR W1282X; W1282X dose response) | CFTR chloride conductance, suppression of UGA PTC (CFTR W1282X; W1282X, 200 ng ACE-tRNA co-injected, forskolin and IBMX) | rescued CFTR current relative to WT CFTR (CFTR W1282X; W1282X, compared to WT CFTR cRNA 25 ng) [%] | Hill coefficient (CFTR G542X; G542X dose response) | CFTR chloride conductance, suppression of UGA PTC (CFTR G542X; G542X, 200 ng ACE-tRNA co-injected, forskolin and IBMX) | rescued CFTR current relative to WT CFTR (CFTR G542X; G542X) | rescued CFTR current relative to WT CFTR (CFTR G542X; G542X, listed as ACE-tRNAGly)
Trpchr17.trna39: top performing tryptophan ACE-tRNA UGA suppressor, SEQ ID NO: 48 | 1.24 | highly efficacious | ~50 |  |  |  | 
B1 |  |  |  | ~1.4 | highly efficacious | WT-like current levels of expression | clear saturation at WT CFTR levels; also recorded: achieves WT-level of expressed CFTR current
